Results reported in the nanobody polyreactivity screen of Harvey et al. (2022).

Assay: yeast display, Sf9 membrane polyspecificity reagent, FACS + sequencing; frameworks hold sequencing errors
In short: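 A synthetic nanobody library was expressed on Saccharomyces cerevisiae BJ5465 by galactose induction for 36–48 hours. The library was stained for 1 hour at 4 °C with 10% biotinylated, detergent-solubilized Sf9 membrane reagent and enriched with streptavidin microbeads before FACS. Low and high (top ~1%) gates were set on anti-HA fluorescence for expression and streptavidin fluorescence for reagent binding, and each polyreactivity label reflects the gate of origin.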

Sequence | polyreactivity (PSR sort gate)
QVQLVESGGGLVQAGCILRLSCAASGRTFHLNAMGWYIQAPGKEREMVAAITNSGGRTSYADSVKVRFTISRDNAKNTVYIQMNSLKPEDTAVYYFNVEVTYSSGKYYYWGQGTQVTVSS | low polyreactivity
QVQLVESGGGLVQAGCRLRLSCAASGSIIYRKAMGWYRQAPGKERQLVAAISARGGRTNYAVSVKGRFTISRDNAKNTVYLQLYSLNPEDTAVYYCNTADSWYHRSQAYDYWGQGTQVTVSS | high polyreactivity
QVQLVESGGGLVQAGCSHSLSCAASGLTFDVYTMGWYRQAPGKERELVATISQTYYADSVKGRFTISRDNAKNTVYLQMNSLKPEDTAVYYCAANGFKAQYRDIVYDYGYWGEGTQVTVSS | low polyreactivity
QVQLVESGGGLVQAGCSLRLICAASGLTFSRYTMGWYRQAPGKERELVAAISLSGGRTYYADSVKGRFTISRDNAKNTVYLQMNSLKPEDTAVYYCNARGTYHGQYYWGEGTQVTVSS | high polyreactivity
QVQLVESGGGLVQAGCSLRLICAASGSISYHNAKGWYRQAPAKEREWVAANSGDGDSTYYADSVKVRFTISRDNAKHTVYLQMNTLKPEDSAVYYSAAEPTVYFSDFVLFPSDFWGQGTQVTVSS | low polyreactivity
QVQLVESGGGLVQAGCSLRLSCAASGFIFRLYTMGWYRQAPGKERELVARITRGDSTIYADSVKGRFTISRDNAKNTVYLQMNSLKPEDTAVYYCAKLHRGLPYYSFYRGYYYWGQGTQVTVSS | low polyreactivity
QVQLVESGGGLVQAGCSLRLSCAASGFIFWENGLGWYRQAPGKERELVAAISSGGGRTYYADSVKGRFTISRDNAKHTVYLQMNSLKPEDTAVYYCNRARYYREFDFWGQGTQVTVSS | high polyreactivity
QVQLVESGGGLVQAGCSLRLSCAASGFIFWLYAMGWYRQAPGKERELVASINWSGGDTYYADSVKGRFTISRDNAKNTVYLQMNSLKPEDTAVYYCNAIVLDSKSSFDYWGQGTQVTVSS | low polyreactivity
QVQLVESGGGLVQAGCSLRLSCAASGFTFGSYAMGWYRQAPWKEREFVAAIRRSGSSTYYADSVKGRFTISRDNAKNTVYLQMNSLKPEDTAVYFCAADVYRRLRRYRYYYLGQGTQVTVSS | low polyreactivity
QVQLVESGGGLVQAGCSLRLSCAASGITFAWYAMGWYRQAPGKERELVAAIDDRGGSTYYADSVKGRFTISRDNAKNTVYLQMNSLKPEDTAVYYCNADTPSYEPYRLDYWGQGTQVTVSS | low polyreactivity
QVQLVESGGGLVQAGCSLRLSCAASGRIFPRNVMGWYRQAPGKERELVAAISSRGTRTYYADSVKGRFTISRDNAKNTVYLQMNSLKPEDTAVYYCAADGPYEGYDYWGLGTQVTVSS | high polyreactivity
QVQLVESGGGLVQAGCSLRLSCAASGRIFQTNVMGWYRQAPGKDRELVAAISYRGGTTYYADSVKGRFTISRDNAKNTVYLQMNSLKPEDPAVYYCAALHYRIRRTGMDYWGQGTQVTVSS | low polyreactivity
QVQLVESGGGLVQAGCSLRLSCAASGRIFTGNAMGWYRQAPGKERELVAAISRSGGRTYYADSVKGRFTISRDNAKNTVYLQMNSLKPEDTAVYYCAAAGYYHTYWGTMDYWGQGTQVTVSS | high polyreactivity
QVQLVESGGGLVQAGCSLRLSCAASGRIFVAITMGRYRQAPGKERELVAAITRGTNTYYADSVKGRFTISRDNAKNTVDLQMNSLKPEDSAVYYCAARLPYNAIGYYYWGHGTQVTVSS | low polyreactivity
QVQLVESGGGLVQAGCSLRLSCAASGRIFYSNVMGWYRQAPGKERELVAAISGRTGGTYYADSVKGRFTISRDTAKNTVYLQMNSLKPEDTAVYYCAARVIYYYGSGPYDYWGQGTQVTVSS | low polyreactivity
QVQLVESGGGLVQAGCSLRLSCAASGRTFAYYAMGWYRQAPGKERELVAAISSGGGSTYYADSVKGRFTISRDNAKNTVYLQMNSLKPEDTAVYYCAKERSYSRSGGTYYYWGQGTQVTVSS | high polyreactivity
QVQLVESGGGLVQAGCSLRLSCAASGRTFGGNAMGWYRQAPGKERELVAAISKSGGRTYYADSVKGRFTISRDNAKNTVYLQMNSLKPEDTAVYYCNKVLSVSQAGGFDYWGQGTQVTVSS | high polyreactivity
QVQLVESGGGLVQAGCSLRLSCAASGRTFSTYAMGWYRQAPGKERELVAAITRRGGSTYYADSVKRRFTISRDNAKNTVYLQINSLKPEDTAVYYCETYADRPPRTPDISYVSNFDYWGQGTQVTVSS | low polyreactivity
QVQLVESGGGLVQAGCSLRLSCAASGSIFTINAMGWYREAPGKERELVAAISFGGGSTYYADSVKGRFTISRDNAKITGYLQMNSLKREDTAVYYCAAEDWWGYDYWGQGNQVTVSS | high polyreactivity
QVQLVESGGGLVQAGCSLRLSCAASGSIFYRYAMGWYRQAPGKERELVAAISRSGGRTYYADSVKGRFTISRDNAKNTVYIQMNSLKPEDTAVYNCAAESTVGTDLGGDSWGQGTQVTVSS | high polyreactivity
QVQLVESGGGLVQAGCSLRLSCAASGSIFYYYAMGWYRQAPGKERELVAAIRRSGSTTYADSVKGRFTISRDNAKNTVYLQMNSLKPEETAVYYCNVYGYGTEYDYWGQGTLVTVSS | high polyreactivity

Sequence | polyreactivity (PSR sort gate)
QVQLVESGGGLVQAGCSLRLSCAASGSNFGMYTMGWYRQAPGKESELVAAISGGGGSTYYADSVKGRFTISRDTAKNTVYVQMNSLKPEDSAVYYCAAVLDLSEWYDYWGQGTQVTVSS | low polyreactivity
QVQLVESGGGLVQAGCSLRLSCAASGSTFPYNSMGWYRQAPGKERELVAAITSSGRTNYADSVKGRFTISRDNAKNTVYLQMNSLKPEDTAVYYCAAARWYAHRVDYWGQGTQVTVSS | low polyreactivity
QVQLVESGGGLVQAGCSLRLSCASSGGIFSWYAMGRYRQAPGKEREFVAAISWRGGRTYYADSVKGRFTISRDNAKNTVYLQMNSLKPEDTAVYYCAVANRAGEDDYWGQGSQVTVSS | high polyreactivity
QVQLVESGGGLVQAGCSLRLSCSASGSIFRNNAMGWYRPAHGKERELVAAITSTGTGTYYADSLKGRFTISRDNAKNTVYLQMNSLKPEDTAVYYCSVDDDFEFVYWGQGTQVTVSS | low polyreactivity
QVQLVESGGGLVQAGCSLRLSYAASGLTFRRNPLGWYRQAPGKERELVATITSVGSTNYADSVKGRFTISRDNAKNTVYLQMISLKPEDTAVYYCRTVTYGYWGQGTQVTVSS | high polyreactivity
QVQLVESGGGLVQAGCSLRLTCAASGSIFPYYAMGWYRQAPGKERELVAAISYSGGRTRYADSVKGRFTISRDNAKNTVYLQMNSLKPEHTAVYYCAVVDRHQPYGRQLDYWGQGTQVTVSS | low polyreactivity
QVQLVESGGGLVQAGCSRRLSCSASGSIFRGNSMGWYRPAPGKERELVAAITGSGGNTYYADSVKGRFTISRDNAKNTVYLQMNSLKPEDTAFYYCIADGWNTYIGPRRYRYDYWGQGTQVTVSS | low polyreactivity
QVQLVESGGGLVQAGCTLRLSCAASGSIAYNAMGWYRQAPGKERELVASIRASGGRTYYADSVKGRFTISRDNAKNSVYLQMNSLKPEDTAVYYCAAYHGSKPLHHKGYDYWGQGTQVSVSS | low polyreactivity
QVQLVESGGGLVQAGDSLRLSCAASGSTFTRNAMGWYRQAPGKERDLVASITRGGSTYADSVKGRFTISRDNAKNTVYLQMYSLKPEDTAVYYCAKSVTCWRGLWYTPRNYFWGQGSQVTVSS | high polyreactivity
QVQLVESGGGLVQAGFSLRLSCAASGSIFDYYTMGCYRQAPGKERELVATIRSGDSTNYADSVKGRFTISRDNAKNTVYLQMNSLKPEDTAVYYFAADDGAYPTLYDYWGQGTQVTVSS | low polyreactivity
QVQLVESGGGLVQAGGCLRLSCAASGFTFWWYAMGWYRQAPGKERELVAAISSGGSTNYADSVKGRFTLSRDNAKNTVYLQMNSLQPEDTAVYYCARRLWYSDRYSARWQYDYWGQVTQVTVSS | high polyreactivity
QVQLVESGGGLVQAGGCLRLSCAASGNTFYGYAMGWYRQAPGKERELVASITLSGDSTYYADSVKGRFTISRDNAMNTVYLQMNSLKPEYTAVYYCAGVYTYPLGYYHYTYDYWGQGTQVTVSS | low polyreactivity
QVQLVESGGGLVQAGGCLRLSCAASGRIFYANTMGWYRQAPGIEWELVASMYGAVGTYADSVKGRFTISRDKAKNTVSLQMNSLKPEDTAVYYCNAYLTRPVEEYLWDGYYYWGQGTQVTVSA | low polyreactivity
QVQLVESGGGLVQAGGCLRLSCAASGSIFFGYAMGWYRQAPGKERELVAAINGSVITSYADSVKGRFTISRDNAKNTVYLQMNSLKPEDTAYYCNTGSTWGAVIANYDHWGQGTQVTVSS | low polyreactivity
QVQLVESGGGLVQAGGCLRLSCAASGSTFEDYAMGWYRQATGKERALVAAINSGGSTYYADSVKGRFTFSRHNAKNTVYLQMNSQKPEDTAVYYCAARIYYWTYRYNYWGQGTQVTVSS | high polyreactivity
QVQLVESGGGLVQAGGCLRLSCAASGSTFLRNTMGWYRLAPGKERELVATISAGASNTYYADSVKGRFTISRDNAKNTDYLQKNSLTPEATAVYYCAARLLTWYYGIRYYWGQGTQVTVSS | high polyreactivity
QVQLVESGGGLVQAGGCLRVSCAASGNICVIYAMGGDRKAPGKERELLAAINWNSGRTYYADSVKGRFTISRDNAKNTVYLQMNSLKPEDTAVYYCAARTWGFGYPEFGYWGQGTQVTVSS | high polyreactivity
QVQLVESGGGLVQAGGGLRLSCAASGITFVDYDMGWYRQAPGKERELDAAITTGSSTYYADSVKGRFTISRDNAKNTVYLQMNSLKPEDTAVYYCARDFEYDYYQQWSYGYWGQGTQVTVSS | low polyreactivity
QVQLVESGGGLVQAGGGLRLSCAASGSIFGSYAMGWYRQAPAKERELVAGITYRGSSTYYADSVKGRFTISRDNAKNTVYLQMTSLKPEDSAVYYCAADPVFDEYDYWGQGTQVTVSS | low polyreactivity
QVQLVESGGGLVQAGGGLRLSCSASGYIFGYTAMGWYRQAPGKERELVAAISYSGGSTYYADSVKGRFTISRDNAKNTVYLQMNSLKPVDTAVYYCAAYRKGTWPGYLGVGYDYWGQGTQVTVSS | high polyreactivity
